Data on 2 proteins can be found in PMC11080044, “Contribution of a C-Terminal Extension to the Substrate Affinity and Oligomeric Stability of Aldehyde Dehydrogenase from Thermus thermophilus HB27” (Biochemistry, 2024).

Series [1] deals with Q72KD3. The series is described as follows: SEC; SE-HPLC (AdvanceBio SEC 300 Å), untreated protein injected directly after thawing, 0.5 mg/mL, 10 mM potassium phosphate buffer pH 8.0, room temperature; oligomeric states from a calibration plot, percent of peak area, triplicate.
In series [2] the target is Q72KD3. The series is described as follows: SEC; SE-HPLC as in a1, after 20 min incubation at 65 °C and centrifugation at 10000 x g.
The target of series [3] is Q72KD3. The series is described as follows: SEC; SE-HPLC as in a1, after 10 min incubation at 65 °C and centrifugation at 10000 x g.
Series [4] deals with Q72KD3. Nature of the series: SEC; SE-HPLC as in a1, after 15 min incubation at 65 °C and centrifugation at 10000 x g. In general terms: In gel filtration, larger molecules generally elute earlier.
Series [5] deals with the molecule itself. The series is described as follows: SEC; SE-HPLC (AdvanceBio SEC 300 Å), untreated protein injected directly after thawing, 0.5 mg/mL, 10 mM potassium phosphate buffer pH 8.0, room temperature; oligomeric states from a calibration plot, percent of peak area, triplicate.
The target of series [6] is Q72KD3. Nature of the series: SEC; SE-HPLC as in a1, after 5 min incubation at 65 °C and centrifugation at 10000 x g.
Series [7] deals with the molecule itself. The series is described as follows: SEC; SE-HPLC (AdvanceBio SEC 300 Å) of ALDHTt-508 purified after a 15 min heat shock of the lysate at 65 °C; 50 µL of 0.5 mg/mL, percent of total peak area.

B1: ALDHTt-508, aldehyde dehydrogenase from Thermus thermophilus HB27 with a 22-amino acid truncation of the C-terminus (enzyme, UniProt Q72KD3 1-508, looked up)
chain: MRKAAGKYGNTLEFGHLVGGEEVLEGPLLERRNPSDREDVVARFPEADKDLVRKAALKAREAFAEWSRTPAPIRGQVLFNLVKILEREKPTLTRLMVREVGKTPKEAAGDVQEAIDTALFFASEGRRLYGQTVPSEMRDKELFTFRRPLGVVGIITAGNFPIAVPSWKLIPAVLTGNTVVWKPSEDAPTLSFVFAKLFEEAGLPPGVLNVVFGGGKGSTGQWMVELMDEGLFQKFAFTGSTQVGRWIGEVAGRNLIRPTLELGGKNPLVVMRDADLDLAVEGAWWSAFATGGQRCTSAGNILVDAPIYEEFKRRFLERVEATLVGNPLLHPEVTYGPFINERFFARWQEHYRVGEAEGARLLFGRGRITRENPYPRFLGDPEAGLYGWPTVWEVRPGTRLFTEEVFGPTINLVKVDGIEEAIAVANSTPYGLSSAIYTNHRHWAYLFKVGIRAGMTSINNATVGAEAHLPFGGVKASGNGGRESGIWVLEEYTYWHAVNEEYSGRLQL
notes: Aldehyde dehydrogenase ALDHTt of Thermus thermophilus strain HB27, UniProtKB Q72KD3, without the last 22 amino acids of the 530; also called truncated mutant
A word on the stoichiometry N: it is the number of molecules, sites or subunits per partner or assembly. Consider B1, for which the % dimer (SE-HPLC) in the series with Q72KD3 [1] was 1.71%; with Q72KD3 [2], 0%; with Q72KD3 [3], 0%; with Q72KD3 [4], 0%; with Q72KD3 [6], 0%. Further, the % monomer (SE-HPLC) in the series with Q72KD3 [1] is 2.5%; with Q72KD3 [2] it was 0.71%; in the series with Q72KD3 [3], 0.79%; with Q72KD3 [4], 0.55%; with Q72KD3 [6] it was 0.87%. The % tetramer (SE-HPLC) is 90% with Q72KD3 [1]; 91.4% with Q72KD3 [2]; 93.1% with Q72KD3 [3]; 95.8% with Q72KD3 [4]; 95.4% with Q72KD3 [6]. The “stoichiometry N” value in series [5] is 4. Further, the “% of fully folded protein in the tetrameric peak” value in series [7] is 6.4 ± 1.5%.

B2: Aldehyde dehydrogenase from Thermus thermophilus HB27, native (ALDHTt-native) (enzyme, UniProt Q72KD3 1-530, looked up)
chain: MRKAAGKYGNTLEFGHLVGGEEVLEGPLLERRNPSDREDVVARFPEADKDLVRKAALKAREAFAEWSRTPAPIRGQVLFNLVKILEREKPTLTRLMVREVGKTPKEAAGDVQEAIDTALFFASEGRRLYGQTVPSEMRDKELFTFRRPLGVVGIITAGNFPIAVPSWKLIPAVLTGNTVVWKPSEDAPTLSFVFAKLFEEAGLPPGVLNVVFGGGKGSTGQWMVELMDEGLFQKFAFTGSTQVGRWIGEVAGRNLIRPTLELGGKNPLVVMRDADLDLAVEGAWWSAFATGGQRCTSAGNILVDAPIYEEFKRRFLERVEATLVGNPLLHPEVTYGPFINERFFARWQEHYRVGEAEGARLLFGRGRITRENPYPRFLGDPEAGLYGWPTVWEVRPGTRLFTEEVFGPTINLVKVDGIEEAIAVANSTPYGLSSAIYTNHRHWAYLFKVGIRAGMTSINNATVGAEAHLPFGGVKASGNGGRESGIWVLEEYTYWHAVNEEYSGRLQLAQMDTGYVSPKAPTPWGEVLGL
notes: Aldehyde dehydrogenase ALDHTt of Thermus thermophilus strain HB27, UniProtKB Q72KD3, 530 amino acids, with its 30-residue C-terminal tail; pET22b(+) construct
In the case of B2, the % dimer (SE-HPLC) in the series with Q72KD3 [1], with Q72KD3 [2], in the series with Q72KD3 [3], with Q72KD3 [4] and in the series with Q72KD3 [6] was 0% each time. The % monomer (SE-HPLC) in the series with Q72KD3 [1], in the series with Q72KD3 [2], with Q72KD3 [3], with Q72KD3 [4] and with Q72KD3 [6] was 0% each time. Besides, the % tetramer (SE-HPLC) in the series with Q72KD3 [1] is 98.8%; with Q72KD3 [2] it was 93.2%; in the series with Q72KD3 [3], 94.9%; with Q72KD3 [4] it was 93.7%; with Q72KD3 [6], 97.7%. The “stoichiometry N” value in series [5] is 4.
